Consider seven substances from PMC4498328.

The target in experiment [1] is Barley yellow dwarf virus-GPV readthrough protein (RTP), AcGFP1 fusion (Barley yellow dwarf virus-GPV). The experiment in a line: co-IP; chemiluminescent Co-IP: pAcGFP1-bait and pProLabel-prey cotransfected into HEK293 cells, lysed after 48 h, anti-GFP polyclonal antibody and protein A/G agarose beads, ProLabel activity read as relative light units; negative control pAcGFP1-Lam/pProLabel-T.

In experiment [2] the target is Barley yellow dwarf virus-GPV coat protein (CP), AcGFP1 fusion (Barley yellow dwarf virus-GPV). The description is as above.

“complexin, ProLabel fusion (natural protein)”: the relative strength of the interaction against the negative control (times the negative control) in experiment [1] came to 5.6.

Regarding “cytochrome P450 4g15, ProLabel fusion (natural protein)”, the relative strength of the interaction against the negative control (times the negative control) in experiment [1] was 3.4. In turn, “cytochrome c oxidase polypeptide IV-like, ProLabel fusion (natural protein)” showed a relative strength of the interaction against the negative control (times the negative control) in experiment [1] of 4.2. Take “nascent polypeptide-associated complex subunit alpha, ProLabel fusion (natural protein)”: the relative strength of the interaction against the negative control (times the negative control) in experiment [2] was found to be 1.6; in experiment [1] it was 4.9. On to “pancreatic lipase-related protein, ProLabel fusion (natural protein)”, for which the relative strength of the interaction against the negative control (times the negative control) in experiment [2] amounted to 3; in experiment [1], 23. Take “tropomyosin, ProLabel fusion (natural protein)”: the relative strength of the interaction against the negative control (times the negative control) in experiment [1] came to 8.7. For the substance “twinstar, ProLabel fusion (natural protein)”, the relative strength of the interaction against the negative control (times the negative control) in experiment [1] was 7.1.
